Data reported in patent publication US20210388087A1 (Chugai, published 2021).
Where a chain is given by its changes, count along the chain named. In names and notes the source's numbering stands. Each block holds one binder with its values, some of them ahead of it.

Target: T1, Human CD3eg linker (human)
T1 construct: Single chain: epsilon and gamma subunits of human CD3 joined by a 29-mer linker, Flag-tag at the C-terminus; also called recombinant human CD3
T1 chain: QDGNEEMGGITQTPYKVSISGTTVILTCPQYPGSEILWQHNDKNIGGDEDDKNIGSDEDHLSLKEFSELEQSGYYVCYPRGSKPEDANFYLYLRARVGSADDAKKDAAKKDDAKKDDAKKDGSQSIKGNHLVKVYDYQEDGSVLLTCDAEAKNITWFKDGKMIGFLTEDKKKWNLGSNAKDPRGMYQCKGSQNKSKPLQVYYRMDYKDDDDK
Experiment: Biacore SPR, vs template H183/L072

fold change of affinity: 1.4 fold
B1: H183/L072 VH S62I (antibody, name in Kabat numbering, V domains shown)
VH: QVQLVESGGGLVQPGRSLRLSCAASGFTFSNAWMHWVRQAPGKGLEWVAQIKDKGNAYAAYYAPIVKGRFTISRDDSKNSIYLQMNSLKTEDTAVYYCHYVHYASASTVLPAFGVDAWGQGTTVTVSS
VL: DIVMTQSPLSLPVTPGEPASISCQASQELVHMNRNTYLHWYQQKPGQAPRLLIYKVSNRFPGVPDRFSGSGSGTDFTLKISRVEAEDVGVYYCAQGTSVPFTFGQGTKLEIK

fold change of affinity: 0.8 fold
B2: H183/L072 VH T28N (antibody, name in Kabat numbering, V domains shown)
VH: B1 VH with T28N, I65S
VL: B1 VL

fold change of affinity: 1 fold
B3: H183/L072 VH S99A (antibody, name in Kabat numbering, V domains shown)
VH: B1 VH with I65S, S105A
VL: B1 VL

fold change of affinity: 0.7 fold
B4: H183/L072 VH S99I (antibody, name in Kabat numbering, V domains shown)
VH: B1 VH with I65S, S105I
VL: B1 VL

fold change of affinity: 0.7 fold
B5: H183/L072 VH T28P (antibody, name in Kabat numbering, V domains shown)
VH: B1 VH with T28P, I65S
VL: B1 VL

fold change of affinity: 1.1 fold
B6: H183/L072 VH S100aP (antibody, name in Kabat numbering, V domains shown)
VH: B1 VH with I65S, S107P
VL: B1 VL

fold change of affinity: 1.3 fold
B7: H183/L072 VH S62P (antibody, name in Kabat numbering, V domains shown)
VH: B1 VH with I65P
VL: B1 VL

fold change of affinity: 0.8 fold
B8: H183/L072 VH S99L (antibody, name in Kabat numbering, V domains shown)
VH: B1 VH with I65S, S105L
VL: B1 VL

fold change of affinity: 2.7 fold
B9: H183/L072 VH T28K (antibody, name in Kabat numbering, V domains shown)
VH: B1 VH with T28K, I65S
VL: B1 VL

fold change of affinity: 0.9 fold
B10: H183/L072 VH T28W (antibody, name in Kabat numbering, V domains shown)
VH: B1 VH with T28W, I65S
VL: B1 VL

fold change of affinity: 0.9 fold
B11: H183/L072 VH T28L (antibody, name in Kabat numbering, V domains shown)
VH: B1 VH with T28L, I65S
VL: B1 VL

fold change of affinity: 1 fold
B12: H183/L072 VH T28F (antibody, name in Kabat numbering, V domains shown)
VH: B1 VH with T28F, I65S
VL: B1 VL

fold change of affinity: 1.1 fold
B13: H183/L072 VH T28I (antibody, name in Kabat numbering, V domains shown)
VH: B1 VH with T28I, I65S
VL: B1 VL

fold change of affinity: 0.6 fold
B14: H183/L072 VH T28D (antibody, name in Kabat numbering, V domains shown)
VH: B1 VH with T28D, I65S
VL: B1 VL

fold change of affinity: 1 fold
B15: H183/L072 VH T28V (antibody, name in Kabat numbering, V domains shown)
VH: B1 VH with T28V, I65S
VL: B1 VL

fold change of affinity: 0.9 fold
B16: H183/L072 VH T28H (antibody, name in Kabat numbering, V domains shown)
VH: B1 VH with T28H, I65S
VL: B1 VL

fold change of affinity: 1.5 fold
B17: H183/L072 VH S62L (antibody, name in Kabat numbering, V domains shown)
VH: B1 VH with I65L
VL: B1 VL

fold change of affinity: 0.6 fold
B18: H183/L072 VH T28E (antibody, name in Kabat numbering, V domains shown)
VH: B1 VH with T28E, I65S
VL: B1 VL

fold change of affinity: 0.9 fold
B19: H183/L072 VH S99M (antibody, name in Kabat numbering, V domains shown)
VH: B1 VH with I65S, S105M
VL: B1 VL

fold change of affinity: 0 fold
B20: H183/L072 VH T28A (antibody, name in Kabat numbering, V domains shown)
VH: B1 VH with T28A, I65S
VL: B1 VL

fold change of affinity: 0.8 fold
B21: H183/L072 VH S100aM (antibody, name in Kabat numbering, V domains shown)
VH: B1 VH with I65S, S107M
VL: B1 VL

fold change of affinity: 1.1 fold
B22: H183/L072 VH T100bA (antibody, name in Kabat numbering, V domains shown)
VH: B1 VH with I65S, T108A
VL: B1 VL

fold change of affinity: 2.9 fold
B23: H183/L072 VH T28R (antibody, name in Kabat numbering, V domains shown)
VH: B1 VH with T28R, I65S
VL: B1 VL

fold change of affinity: 1.1 fold
B24: H183/L072 VH S100aL (antibody, name in Kabat numbering, V domains shown)
VH: B1 VH with I65S, S107L
VL: B1 VL

fold change of affinity: 0.6 fold
B25: H183/L072 VH S99P (antibody, name in Kabat numbering, V domains shown)
VH: B1 VH with I65S, S105P
VL: B1 VL

fold change of affinity: 1.4 fold
B26: H183/L072 VH T100bI (antibody, name in Kabat numbering, V domains shown)
VH: B1 VH with I65S, T108I
VL: B1 VL

fold change of affinity: 0.7 fold
B27: H183/L072 VH T28G (antibody, name in Kabat numbering, V domains shown)
VH: B1 VH with T28G, I65S
VL: B1 VL

fold change of affinity: 1 fold
B28: H183/L072 VH S100aI (antibody, name in Kabat numbering, V domains shown)
VH: B1 VH with I65S, S107I
VL: B1 VL

fold change of affinity: 0.8 fold
B29: H183/L072 VH S100aA (antibody, name in Kabat numbering, V domains shown)
VH: B1 VH with I65S, S107A
VL: B1 VL

fold change of affinity: 1.3 fold
B30: H183/L072 VH S62M (antibody, name in Kabat numbering, V domains shown)
VH: B1 VH with I65M
VL: B1 VL

fold change of affinity: 1.2 fold
B31: H183/L072 VH T28S (antibody, name in Kabat numbering, V domains shown)
VH: B1 VH with T28S, I65S
VL: B1 VL

fold change of affinity: 0.8 fold
B32: H183/L072 VH T28M (antibody, name in Kabat numbering, V domains shown)
VH: B1 VH with T28M, I65S
VL: B1 VL

fold change of affinity: 0 fold
B33: H183/L072 VH T28Q (antibody, name in Kabat numbering, V domains shown)
VH: B1 VH with T28Q, I65S
VL: B1 VL
